The data set deals with the molecule itself. The experiment in a line: SEC + other: negative stain transmission electron microscopy; Ni-purified His-tagged protein run over Superose 6 Increase HiScale (80 ml); void (high molecular weight) fractions visualised by negative stain TEM (2% uranyl acetate), 2D classes in cryoSPARC; self-assembly into capsid-like particles.

B1: recombinant mouse PNMA4, His-tagged (natural protein, UniProt Q9ERH6 1-352, looked up)
chain: MTLRLLEDWCRGMDMNPRKALLVAGIPPTCGVADIEEALQAGLAPLGEHRLLGRMFRRDENKNVALIGLTVETGSALVPKEIPAKGGVWRVIFKPPDTDSDFLCRLNEFLKGEGMTMGELTRVLGNRNDPLGLDPGIMIPEIRAPMLAQALNEALKPTLQYLRYKKLSVFSGRDPPGPGEEEFESWMFHTSQVMKTWQVSDVEKRRRLIESLRGPAFEIIRVLKINNPFITVAECLKTLETIFGIIDNPRALQVKYLTTYQKTDEKLSAYVLRLEPLLQKLVQKGAIEKEVVNQARLDQVIAGAVHKSVRRELGLPEGSPAPGLLQLLTLIKDKEAEEEEVLLQAELEGYCT
notes: PNMA4 (also called MOAP-1 or MAP-1), mouse, full-length Pnma4 cloned into the first cassette of a modified pET-Duet plasmid; The modified pET-Duet encodes a C-terminal 3C protease cut site followed by the His tag; no cleavage is described; also called MOAP-1; MAP-1; source: E. coli LOBSTR (RIL plasmid), purified (Ni-Sepharose, Superose 6 size exclusion; void fractions collected); not shown: His …
Turning to B1, the binding result is “binds”.

B2: recombinant mouse PNMA1, His-tagged (natural protein, UniProt Q8C1C8 1-353, looked up)
chain: MAMTLLEDWCRGMDVNSQRALLVWGIPVNCDETEIEETLQAAMPQVSYRVLGRMFWREENAKAALLELTGAVDYSLIPREMPGKGGLWKVVFKPPTSDAVFLERLHLFLAREGWTVQDVARVLGFQNPAPAPGPEMPAEMLNYILDNVIQPLVESIWYKKLTLFSGKDIPGPGEETFDSWLEHSNEIIEEWQVSDIEKRRRLMESLRGPAADVIRILKTNNAAITTAECLKALEQVFGSVESSRDAQVRFLNTYQNPGEKLSSYVIRLEPLLQKVVDKGVIDKDNVNQARLEQVIAGANHSGALRRQLWLAGAEEGPAPNLFQLLVQIREEEAKKEEEEAEAALLQLGLEGHF
notes: PNMA1, mouse, full-length Pnma1 cloned into the first cassette of a modified pET-Duet plasmid; The modified pET-Duet encodes a C-terminal 3C protease cut site followed by the His tag; no cleavage is described; source: E. coli LOBSTR (RIL plasmid), purified (Ni-Sepharose, Superose 6 size exclusion; void fractions collected); not shown: His tag, C-terminal, kept
With B2, the binding result is recorded as “binds”.

The values are drawn from paper PMC11261967, “The retrotransposon-derived capsid genes PNMA1 and PNMA4 maintain reproductive capacity” (Research Square, 2024).
